The target in test [1] is T1, biotinylated hBLyS-ECD (human, UniProt Q9Y275 134-285, biotinylated with Biotin-X-X-NHS (molar ratio 7:1), sites not stated).
T1 construct: The hBLyS-ECD of Embodiment 1 after biotinylation (Embodiment 2); also called biotinylated immunogen; BLyS protein; not shown: His tag of the pCPC vector
Kind of test: ELISA: biotinylated hBLyS-ECD captured on streptavidin, antibody titrated, HRP secondary antibody. A general note: In an ELISA, binding on a coated surface is turned into a signal by an enzyme label.

The target of test [2] is T1, biotinylated hBLyS-ECD. Described as above. The source holds these as a separate data set.
For test [3], the target named is T2, extracellular domain of human BLyS protein (hBLyS-ECD), His-tagged, Ala134-Leu285 (human, UniProt Q9Y275 134-285). Kind of test: cell-based or functional assay.
T2 sequence (Q9Y275 134-285): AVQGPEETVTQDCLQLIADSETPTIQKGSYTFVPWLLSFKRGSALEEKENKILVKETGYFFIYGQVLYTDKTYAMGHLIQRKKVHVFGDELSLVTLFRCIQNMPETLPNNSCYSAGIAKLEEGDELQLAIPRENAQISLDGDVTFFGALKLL
Test [4] has as its target T3, biotinylated hBLyS-ECD (human, UniProt Q9Y275 134-285, biotinylated with Biotin-X-X-NHS (molar ratio 7:1); sites not stated).
T3 construct: also called biotinylated immunogen; biotinylated hBLvS-ECD
Put plainly: ELISA on captured biotinylated hBLyS-ECD; antibody 13.3 nM.

In test [5] the target is T3, biotinylated hBLyS-ECD. Kind of test: ELISA on captured biotinylated hBLyS-ECD; antibody 2.67 nM.
In test [6] the target is T3, biotinylated hBLyS-ECD. Put plainly: ELISA on captured biotinylated hBLyS-ECD; antibody 66.7 nM.
Test [7] deals with T3, biotinylated hBLyS-ECD. Put plainly: ELISA on captured biotinylated hBLyS-ECD; antibody 0.107 nM.
Test [8] concerns the target T3, biotinylated hBLyS-ECD. Kind of test: ELISA on captured biotinylated hBLyS-ECD; antibody 0.534 nM.
Test [9] deals with T3, biotinylated hBLyS-ECD. Put plainly: ELISA on captured biotinylated hBLyS-ECD; antibody 0.0213 nM.
In test [10] the target is T3, biotinylated hBLyS-ECD. Put plainly: ELISA on captured biotinylated hBLyS-ECD; antibody 0.00427 nM.
For test [11], the target named is T3, biotinylated hBLyS-ECD. Kind of test: ELISA on captured biotinylated hBLyS-ECD; antibody 0 nM (background).
The target in test [12] is T2, extracellular domain of human BLyS …. Put plainly: SPR (Biacore), antibody captured by anti-human Fc, hBLyS-ECD as analyte. On the technique in general: Surface plasmon resonance follows binding to a sensor surface in real time, without labels.
The target is the same in test [13]. Put plainly: cell-based or functional assay. This is another data set of the same source.

The source of these data is US20210347873A1 (SHANGHAI PHARMAEXPLORER, published 2021).

Where two headings read alike, the source gives them in different places.

T1 sequence (Q9Y275 134-285): as above
T3 sequence (Q9Y275 134-285): as above

B1: h97A3C2H4-9 (antibody, human IgG1, V domains shown)
VH: EVQLVESGGGLVQPGGSLRLSCAASGFTFSTYTMSWVRQAPGKRLEWVAYISYGGGSTSYPDTVKGRFTISRDNAKNSLYLQMNSLRAEDTAVYYCTRHVTVVENSMDYWGQGTTVTVSS
VL: DILLTQSPDFQSVTPKEKVTITCRASQSIGTSIHWYQQKTDQSPKLLIKYVSESFSGTPSRFSGSGSGTDFTLTINSLEAEDAATYYCQQTHSWPWTFGGGTKVEIK
notes: Humanized (VH.1b / Vk.1d); also called humanized BLyS antibody
For the molecule B1, the EC50 (read off the curve) (commonly the concentration that produces a half-maximal response) with biotinylated hBLyS-ECD [1] was in the range of 0.1 to 0.2 nM.

B2: c8E7D9C7F5 (antibody, human IgG1, V domains shown)
VH: QVQLQQSGVELARPGASVKLSCKASGYTFTSYGISWVKQRTGQALEWIGEIYPRSGNTYYNEKFKGKATLTADKSSSTAYMELRSLTSEDSAVYFCARSGPITTLVATDYGMDYWGQGTSVTVSS
VL: DIVLTQSPASLAVSLGQRATISCRASKSVSTSSYSYMHWYQQKPGQPPKLLIKFASNLESGVPARFSGSGSGTDFTLNIHPVEEEDAATYYCQHSREFPYTFGGGTKLEIK
notes: also called BLyS chimeric antibody
As to B2, the concentration for a half-maximal effect (EC50 (read off the curve)) in the test with biotinylated hBLyS-ECD [2] and with biotinylated hBLyS-ECD [1] was about 0.1 nM throughout.

B3: h8E7D9C7F5-1 (antibody, human IgG1, V domains shown)
VH: EVQLVQSGAEVKKPGASVKVSCKASGYTFTSYGISWVRQAPGQGLEWMGEIYPRSGNTYYNEKFKGRVTMTTDTSTSTAYMELRSLRSDDTAVYYCARSGPITTLVATDYGMDYWGQGTTVTVSS
VL: DIVMTQSPDSLAVSLGERATINCRASKSVSTSSYSYMHWYQQKPGQPPKLLIKFASNLESGVPDRFSGSGSGTDFTLTISSLQAEDVAVYYCQHSREFPYTFGGGTKVEIK
notes: Humanized (VH.1 / Vk.1); also called humanized BLyS antibody
For the molecule B3, in the test with biotinylated hBLyS-ECD [1], the concentration giving a half-maximal response (EC50 (read off the curve)) is about 0.08 nM.

B4: c111D10D6G3 (antibody, V domains shown)
VH: QVQLQQPGAELVKPGASVKMSCKASGYTFTRHWITWVKQRPGQGLEWIGDIFPGSGSINYNEKFKSEATLTVEKSSSTAYMQLSSLTSEDSAVYYCARGDVDVWGTGTTVTVSS
VL: DIQMTQSPSSLSASLGERVSLTCRASQEIRGYLSWLQQKPNGTIKRLIYAASTLDSGVPKRFSATRSGSDFSLTISSLESEDFADYYCLQYASYPFTFGSGTKLEIK
With B4, the “Proportion of B lymphocytes in splenocytes (%), in vivo in mice” value in test [3] amounted to 33.2%. The OD450 nm with biotinylated hBLyS-ECD [4] is 3.39 OD450 nm; in the test with biotinylated hBLyS-ECD [5], 3.4 OD450 nm; in the test with biotinylated hBLyS-ECD [6], 3.43 OD450 nm; with biotinylated hBLyS-ECD [7], 2.12 OD450 nm; with biotinylated hBLyS-ECD [8], 3.16 OD450 nm; with biotinylated hBLyS-ECD [9] it was 0.747 OD450 nm. The OD450 nm is 0.222 OD450 nm in the test with biotinylated hBLyS-ECD [10] and 0.105 OD450 nm in the test with biotinylated hBLyS-ECD [11]. In addition, the affinity in [12], expressed as Kd, was 0.297 nM. In addition, the koff (as a rule, the rate constant with which the complex falls apart) in test [12] was 2.98e-05 s⁻¹. Also, the kon (usually the second-order rate constant of association) in [12] came to 100000 M⁻¹ s⁻¹.

B5: c93C6F10D3 (antibody, V domains shown)
VH: EVQLVESGGGLVTPGGSLKLSCVASGFAFSTYGMSWVRQTPERRLEWVAYISGGGGSIYYPDSVKGRFTISRDNAKNILYLQMSSLKSEDTAMYHCTRHPDLLLRYDYALDHWGQGTSVTVSS
VL: DIQMTQSPASLSASVGETVTITCRASENIHIYLAWYQQKQGKSPQLLVYNGKTLADGVPSRFSGSGSGTQYSLKINTLQPEDFGNYYCQHFWNSTWTFGGGTKLEIK
As to B5, in test [13], the “OD450 nm (as headed), mouse B lymphocyte proliferation; antibody 0 nM” value amounted to 4320; the “OD450 nm (as headed), mouse B lymphocyte proliferation; antibody 0.000256 nM” value is 4600; the “OD450 nm (as headed), mouse B lymphocyte proliferation; antibody 0.00128 nM” value came out at 4520; the “OD450 nm (as headed), mouse B lymphocyte proliferation; antibody 0.0064 nM” value is 4920. In test [13], the “OD450 nm (as headed), mouse B lymphocyte proliferation; antibody 0.032 nM” value was 4520; the “OD450 nm (as headed), mouse B lymphocyte proliferation; antibody 0.16 nM” value came out at 4300; the “OD450 nm (as headed), mouse B lymphocyte proliferation; antibody 0.8 nM” value was determined as 1090; the “OD450 nm (as headed), mouse B lymphocyte proliferation; antibody 4 nM” value is 527. Moreover, in test [13], the “OD450 nm (as headed), mouse B lymphocyte proliferation; antibody 20 nM” value was determined as 434 and the “OD450 nm (as headed), mouse B lymphocyte proliferation; antibody 100 nM” value amounted to 389. Also, in test [3], the “Proportion of B lymphocytes in splenocytes (%), in vivo in mice” value worked out at 27.1%. In addition, in test [12], the Kd (usually the concentration at which binding is half-saturated) is 0.386 nM, the koff was found to be 0.000212 s⁻¹ and the kon is 549000 M⁻¹ s⁻¹.

B6: c67A2E1D10 (antibody, V domains shown)
VH: EVQLQQSGAELVKPGASVKLSCTASGFNIKNYYMHWVKQRTEEGLEWIGRIDPEDGETKYAPKFQAKATITADTSSNTAYLQLSSLTSEDTAVYFCARKGYYGNYGAWFAYWGQGTLVTVSA
VL: DIQMTQSPASLSVSVGETVTITCRASEDLYSNLAWYQQKQGKSPQLLVYAATFLADGVPSRFSGSGSGTQYSLKINSLQSEDFGNYYCQHFWGTPPTFGGGTKLEIK
B6: in [13], the “OD450 nm (as headed), mouse B lymphocyte proliferation; antibody 0 nM” value was determined as 4060; the “OD450 nm (as headed), mouse B lymphocyte proliferation; antibody 0.000256 nM” value stood at 4720; the “OD450 nm (as headed), mouse B lymphocyte proliferation; antibody 0.00128 nM” value was found to be 4810; the “OD450 nm (as headed), mouse B lymphocyte proliferation; antibody 0.0064 nM” value came to 5170. In addition, in test [13], the “OD450 nm (as headed), mouse B lymphocyte proliferation; antibody 0.032 nM” value turned out to be 4340; the “OD450 nm (as headed), mouse B lymphocyte proliferation; antibody 0.16 nM” value amounted to 3900; the “OD450 nm (as headed), mouse B lymphocyte proliferation; antibody 0.8 nM” value is 3970; the “OD450 nm (as headed), mouse B lymphocyte proliferation; antibody 4 nM” value was 3500. In [13], the “OD450 nm (as headed), mouse B lymphocyte proliferation; antibody 20 nM” value worked out at 2610 and the “OD450 nm (as headed), mouse B lymphocyte proliferation; antibody 100 nM” value came out at 1100. The OD450 nm in the test with biotinylated hBLyS-ECD [4] is 3.24 OD450 nm. Moreover, in the test with biotinylated hBLyS-ECD [5], the OD450 nm is 2.94 OD450 nm. Also, in the test with biotinylated hBLyS-ECD [6], the OD450 nm turned out to be 3.19 OD450 nm. Also, the OD450 nm with biotinylated hBLyS-ECD [7] amounted to 1.58 OD450 nm. In addition, the OD450 nm with biotinylated hBLyS-ECD [8] turned out to be 2.73 OD450 nm. Besides, the OD450 nm with biotinylated hBLyS-ECD [9] was determined as 0.523 OD450 nm. Further, the OD450 nm with biotinylated hBLyS-ECD [10] came to 0.143 OD450 nm. Also, the OD450 nm with biotinylated hBLyS-ECD [11] is 0.0848 OD450 nm. In test [12], this molecule yielded a Kd of 4.99 nM, a koff of 0.000159 s⁻¹ and a kon of 32000 M⁻¹ s⁻¹.
